Experimental data published in patent US20160031945A1 (INDIANA UNIVERSITY RESEARCH AND TECHNOLOGY, published 2016).

How the values were obtained:
[1] = molecular target: T1, CaV2.2 L1-GST fusion protein (first cytosolic loop of CaV2.2) (rat, UniProt Q02294 356-483); experiment: SPR (BIAcore 3000), immobilized L1-GST
T1 construct: range 356-483; also called cytosolic loop 1; first intracellular loop; not shown: GST tag of the pGex-3x-Glu vector

[2] = molecular target: T2, CaV2.2 Ct-dis-GST fusion protein (distal end of the C-terminus of CaV2.2) (rat, UniProt Q02294 2121-2336); experiment: SPR (BIAcore 3000), immobilized Ct-dis-GST
T2 construct: range 2133-2348; also called distal C-terminus; not shown: GST tag of the pGex-3x-Glu vector
T2 sequence (Q02294 other isoform, or with tags, fused parts or gaps): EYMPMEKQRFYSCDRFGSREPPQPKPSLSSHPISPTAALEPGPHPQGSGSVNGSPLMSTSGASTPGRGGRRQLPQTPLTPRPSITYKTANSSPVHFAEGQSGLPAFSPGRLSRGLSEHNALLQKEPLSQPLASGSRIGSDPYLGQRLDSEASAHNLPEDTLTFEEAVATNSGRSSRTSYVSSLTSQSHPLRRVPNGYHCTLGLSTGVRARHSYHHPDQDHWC

T1 sequence (Q02294 other isoform, or with tags, fused parts or gaps): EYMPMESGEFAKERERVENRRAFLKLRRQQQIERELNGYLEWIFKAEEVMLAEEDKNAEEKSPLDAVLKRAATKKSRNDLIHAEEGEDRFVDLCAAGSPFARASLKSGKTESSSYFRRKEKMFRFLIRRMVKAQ

B1: TAT-Scramble (modified TAT sequence coupled to a random sequence) (peptide)
peptide: YGRKKRRQRRRWEAKEMLYFEALVIE
notes: also called TAT control; scramble peptide
binding result [1]: no binding (tested: 1/3/5 µM)
binding result [2]: no binding (tested: 1/3/5 µM)
